31 molecules from US6177557, “High affinity ligands of basic fibroblast growth factor and thrombin” (NeXstar Pharmaceuticals, Inc.) can be followed below.

Data set [1] deals with T1, basic fibroblast growth factor (bFGF) (UniProt P09038 P09038:135-288). The data set is described as follows: filter; PBS. The note with it: tags: Bachem California, 18 kDa, 154 aa; 125I-labeled for receptor assays; label: 32P. The procedure:
(§1) In order to eliminate higher order structures, all DNA solutions were heated to 90° C. in PBS for 2–3 minutes and cooled on ice prior to incubation with protein. Relative binding affinity of individual ligands to bFGF cannot be predicted from sequence information. The majority of sequence isolates were therefore screened for their ability to bind to bFGF by measuring the fraction of radiolabeled DNA bound to nitrocellulose filters following incubation with 1 nM protein. […] Binding of these select isolates was then analyzed in more detail.

Data set [2] addresses T1, basic fibroblast growth factor (bFGF). The data set is described as follows: filter. Particulars: tags: Bachem California, 18 kDa, 154 aa; 125I-labeled for receptor assays. The procedure: as §1
Those ligands are M225, M19, m234, M235, and D12 (SEQ ID NOS:359, 353, 387, 360, 332). The minimum size of the region necessary for binding was determined to be 35 bases for M225, M19 and D12 (See Truncations, Table XXI M225t3 (SEQ ID NO:364), M19t2 (SEQ ID NO:365), D12t2 (SEQ ID NO:341)). The ligand with the smallest essential sequence, m234, was isolated from Family 2, Experiment 3 and contains 24 nucleotides (m234t2 (SEQ ID NO:391)). The truncated ligands were tested for binding to bFGF. After truncation, ligands M225t3, M19t2, D12t2, M235t2, and m234t2 have kd values of 0.7 nM, 1 nM, 1 nM, 1 nM, and 6 nM respectively (Table XXII). All five of the truncated molecules lost some of their affinity for bFGF in comparison to the full length ligands. The binding affinity is regained when an additional G-C base pair is added to the blunt end stem of M225t3. This molecule is termed M225t3GC (SEQ ID NO:443). The binding of M225t3GC is 0.2 nM compared to 0.7 nM for M225t3 without the additional base pair (Table XXII).

For data set [3] the target is unchanged. The data set is described as follows: filter; PBS, 0.01% HSA, 1 mM DTT, 37 C; +/-0.3. Particulars: tags: Bachem California, 18 kDa, 154 aa; 125I-labeled for receptor assays. The method, then:
(§2) This affinity screening allowed identification of those ligands with highest affinity for bFGF. Binding of a group of these ligands was analyzed over a range of bFGF concentrations (FIG. 5) and their dissociation constants.(Kd's) were determined as described (Jellinek et al. (1993) Proc. Natl. Acad. Sci. USA 90:11227–11231) (Table IX). RNA concentrations were determined from their absorbance reading at […] (and were typically <100 pM). Binding reactions were done at 37° C. in phosphate buffered saline containing 0.01% human serum albumin and 1 mM DTT.

For data set [4], the target named is T2, thrombin (alpha) (human, UniProt P00734;P00734 P00734:328-363,P00734:364-622). The data set is described as follows: filter; 50 mM Tris pH 7.5, 100 mM NaCl, 1 mM MgCl2, 37 C.
In data set [5] the target is vascular endothelial growth factor (VEGF) (UniProt P15692-4 P15692-4:27-191). The data set is described as follows: filter; specificity, data not shown. The note with it: chain copies: 2; label: 32P.
Chain of vascular endothelial growth factor (VEGF) (P15692 other isoform, or with tags, fused parts or gaps): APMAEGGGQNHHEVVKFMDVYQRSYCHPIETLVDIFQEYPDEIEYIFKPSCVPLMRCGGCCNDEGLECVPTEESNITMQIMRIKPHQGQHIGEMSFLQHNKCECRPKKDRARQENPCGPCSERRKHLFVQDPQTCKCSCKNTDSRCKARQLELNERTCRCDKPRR
For data set [6], the target named is T2, thrombin (alpha). The data set is described as follows: filter; specificity, data not shown.
A further data set deals with antithrombin III (UniProt P01008 P01008:33-464). The data set is described as follows: filter; specificity, data not shown. Particulars: label: 32P.
Chain of antithrombin III (P01008 33-464, one chain of several): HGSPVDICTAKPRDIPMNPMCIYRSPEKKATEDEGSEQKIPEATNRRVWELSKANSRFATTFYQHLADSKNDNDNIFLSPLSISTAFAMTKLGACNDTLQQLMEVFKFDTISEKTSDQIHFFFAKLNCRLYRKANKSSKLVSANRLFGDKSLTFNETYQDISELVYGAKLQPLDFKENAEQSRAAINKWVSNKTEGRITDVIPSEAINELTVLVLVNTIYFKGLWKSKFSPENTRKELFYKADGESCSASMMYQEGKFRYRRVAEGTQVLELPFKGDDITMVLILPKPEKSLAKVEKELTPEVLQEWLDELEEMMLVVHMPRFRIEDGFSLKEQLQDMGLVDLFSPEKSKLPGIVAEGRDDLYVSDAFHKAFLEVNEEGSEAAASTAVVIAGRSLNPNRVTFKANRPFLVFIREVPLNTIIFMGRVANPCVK
In a further data set the target is acidic FGF (UniProt P05230 P05230:16-155). The data set is described as follows: filter; specificity, data not shown. Particulars: label: 32P.
Chain of acidic FGF (P05230 16-155, one chain of several): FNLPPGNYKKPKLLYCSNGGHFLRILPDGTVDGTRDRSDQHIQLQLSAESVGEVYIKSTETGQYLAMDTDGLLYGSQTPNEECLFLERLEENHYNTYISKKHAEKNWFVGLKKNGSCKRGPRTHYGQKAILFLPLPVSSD
In data set [7] the target is T1, basic fibroblast growth factor (bFGF). The data set is described as follows: filter; PBS, 0.01% HSA, 1 mM DTT, 37 C; +/-0.5. The note with it: tags: Bachem California, 18 kDa, 154 aa; 125I-labeled for receptor assays. The procedure:
as §2

Some results are limits rather than exact numbers.

T1 sequence (P09038 135-288, one chain of several): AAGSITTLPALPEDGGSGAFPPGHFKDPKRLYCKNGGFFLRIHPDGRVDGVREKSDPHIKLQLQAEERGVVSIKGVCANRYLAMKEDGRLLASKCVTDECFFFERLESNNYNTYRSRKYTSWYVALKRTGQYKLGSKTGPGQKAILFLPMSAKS

B1: m224 (ssDNA)
DNA: GGGAGGACGATGCGGCACCGAGGAATAACTGACGCCAGGCTGGCGCAGACGACGACGGGGA
What is called Kd is the constant that tells how readily two partners part at equilibrium. Low readings indicate higher affinity, high ones lower affinity. In [1], B1 displayed a Kd of 1.5 nM.

B2: m234t2 (ssDNA)
DNA: CGAGGAGCTTTAGCGCCACAGGTT
Take B2: the affinity in [2], expressed as Kd, was 6 nM.

B3: 2'-NH2 53A (ssRNA)
RNA: GGGAGACAAGAAUAACGCUCAAUGAGGAUCGGAUGGGGAGCAGGCGGAGGAAUUCGACAGGAGGCUCACAACAGGC
modifications: 2'-NH2 pyrimidines
In turn, B3 had a Kd in [3] of 1.5 nM.

B4: 2'-NH2 54A (ssRNA)
RNA: GGGAGACAAGAAUAACGCUCAAACUGUUGUGUGGAAGACAGCGGGUGGUUGAUUCGACAGGAGGCUCACAACAGGC
modifications: 2'-NH2 pyrimidines
B4: in [3], the dissociation constant (Kd) was 1.7 nM.

B5: M19 (ssDNA)
DNA: GGGAGGACGATGCGGGGCTATGTAAATTACTGCTGTACTACGCATCAGACGACGACGGGGA
Regarding B5, the Kd in [1] is 0.3 nM.

B6: 30-6 (ssDNA)
DNA: AGATGCCTGTCGAGCATGCTACACCCGTGGTAGGGTAGGATGGGGTGGTCGTAGCTAAACTGCTTTGTCGACGGG
In the data set with thrombin (alpha) [4], B6 showed a Kd of 1.2 nM.

B7: 5A (ssRNA)
RNA: GGGAGCUCAGAAUAAACGCUCAAAUCUCCUCCCGUCGAAGCUAACCUGGCCACUUCGACAUGAGGCCCGGAUCCGGC
Regarding B7, the Kd (in data set [5]; with thrombin (alpha) [6]; with antithrombin III; in the data set with acidic FGF) was over 300 nM each time.

B8: 60-18(38) (ssDNA)
DNA: CAGTCCGTGGTAGGGCAGGTTGGGGTGACTTCGTGGAA
In the data set with thrombin (alpha) [4], B8 registered an equilibrium dissociation constant (Kd) of 1.9 nM.

B9: 60-18 (ssDNA)
DNA: AGATGCCTGTCGAGCATGCTCTTTGGAGACAGTCCGTGGTAGGGCAGGTTGGGGTGACTTCGTGGAAGAAGCGAGACGGTGTAGCTAAACTGCTTTGTCGA
As for B9, the Kd with thrombin (alpha) [4] came to 0.92 nM.

B10: M17 (ssDNA)
DNA: GGGAGGACGATGCGGGGGGCTTTGCAAAAATTGTTAAATCTACCCCAGACGACGACGGGGA
B10: binding in data set [1] was put at a Kd of 6.9 nM.

B11: 30-16 (ssDNA)
DNA: AGATGCCTGTCGAGCATGCTGCCGCTACGAGGGTAGGTGTGGATGCTGCCGTAGCTAAACTGCTTTGTCGACGGG
In the case of B11, in the data set with thrombin (alpha) [4], binding was characterised by a dissociation constant (Kd) of 9.4 nM.

B12: M19t2 (ssDNA)
DNA: GCGGGGCTATGTAAATTACTGCTGTACTACGCATC
On to B12, for which the affinity in [2], expressed as Kd, was 1 nM.

B13: M235 (ssDNA)
DNA: GGGAGGACGATGCGGGGCTCTGCAAAGGACACAGGTCCTACGCATCAGACGACGACGGGGA
In [1], B13 showed a Kd of 0.2 nM.

B14: 2'-NH2 47B (ssRNA)
RNA: GGGAGGACGAUGCGGAGGGUGGCUGGGAGGACCCGCGGUGAAUCGGUAGCACAGUGAUGUUCGGUCAGACGACUCGCCCGA
modifications: 2'-NH2 pyrimidines
For the molecule B14, the dissociation constant (Kd) in data set [3] stood at 2.9 nM.

B15: 7A (ssRNA)
RNA: GGGAGCUCAGAAUAAACGCUCAAUCGGCGAGCUAACCAAGACACUCGCUGCACUUCGACAUGAGGCCCGGAUCCGGC
B15: the dissociation constant (Kd) (in data set [5]; with thrombin (alpha) [6]; with antithrombin III; with acidic FGF) was over 300 nM in each case.

B16: m234 (ssDNA)
DNA: GGGAGGACGATGCGGCCCGAGGAGCTTTAGCGCCACAGGTTTGTGCAGACGACGACGGGGA
Molecule B16 showed a Kd in [1] of 0.7 nM.

B17: 60-7 (ssDNA)
DNA: AGATGCCTGTCGAGCATGCTGGCGGCGTTGGTGTAGTGGCGCACTGTGGTTGGGCGGAGAGGCTAGGAGTGCATGATGCCGTAGCTAAACTGCTTTGTCGACGGG
Consider B17, for which the affinity with thrombin (alpha) [4], expressed as Kd, was 2.5 nM.

B18: 60-27 (ssDNA)
DNA: AGATGCCTGTCGAGCATGCTGGCGTCCGATGATTCAGGTCGTGGTAGGCATTGAGGGATGGGGTCCTGTGGGACTGGCCTGTAGCTAAACTGCTTTGTCGACGGG
Take B18: the Kd with thrombin (alpha) [4] stood at 0.96 nM.

B19: 30-35 (ssDNA)
DNA: AGATGCCTGTCGAGCATGCTGGGAGTGGTAGGAGTAGGGTTGGAGCCGTAGTAGCTAAACTGCTTTGTCGACGGG
B19 had an equilibrium dissociation constant (Kd) with thrombin (alpha) [4] of 1.4 nM.

B20: M235t2 (ssDNA)
DNA: GCGGGGCTCTGCAAAGGACACAGGTCCTACGCATCAG
In the case of B20, the Kd in [2] is 1 nM.

B21: 2'-NH2 49A (ssRNA)
RNA: GGGAGACAAGAAUAACGCUCAAAUGGUGUGUGGAAGACAGUGGGUGGUUGCAUUCGACAGGAGGCUCACAACAGGC
modifications: 2'-NH2 pyrimidines
B21 registered a dissociation constant Kd in [3] of 1.4 nM.

B22: 2'-NH2 22B (ssRNA)
RNA: GGGAGGACGAUGCGGCGUGGUUCCGUGGGUGGUGAGAUGAGACUUAAUCAGUUCGUAGACCGGUCAGACGACUCGCCCGA
modifications: 2'-NH2 pyrimidines
Consider B22, for which the dissociation constant (Kd) in data set [7] is 2.8 nM.

B23: M225t3GC (ssDNA)
DNA: GGCGGGGCTACGTACCGGGGCTTTGTAAAACCCCGCC
Turning to B23, in data set [2], binding was characterised by a dissociation constant (Kd) of 0.2 nM.

B24: 30-14 (ssDNA)
DNA: AGATGCCTGTCGAGCATGCTGTTGTGGTAGGGTTAGGGATGGTAGCGGTTGTAGCTAAACTGCTTTGTCGACGGG
The molecule B24 came in with a Kd with thrombin (alpha) [4] of 1 nM.

B25: 30-8 (ssDNA)
DNA: AGATGCCTGTCGAGCATGCTGTGAATAGGTAGGGTCGGATGGGCTACGGTGTAGCTAAACTGCTTTGTCGACGGG
On to B25, for which the affinity in the data set with thrombin (alpha) [4], expressed as Kd, was 0.4 nM.

B26: 26A (ssRNA)
RNA: GGGAGCUCAGAAUAAACGCUCAACGUCAGAAGGCAACGUAUAGGCAAGCACACUUCGACAUGAGGCCCGGAUCCGGC
As for B26, the Kd (in [5]; in the data set with thrombin (alpha) [6]; with antithrombin III; with acidic FGF) was over 300 nM throughout.

B27: 2'-NH2 52B (ssRNA)
RNA: GGGAGGACGAUGCGGGGAGGGGCAGGUUCGAUGCGGGAGCGACUGACCACGAGAAAUGUGCGGGUCAGACGACUCGCCCGA
modifications: 2'-NH2 pyrimidines
In data set [3], B27 returned a Kd of 2.3 nM.

B28: D12t2 (ssDNA)
DNA: AGGCCAGGGCTATGCAAATCGCGGCGCCTATGGCC
B28 had a dissociation constant (Kd) in [2] of 1 nM.

B29: m206 (ssDNA)
DNA: GGGAGGACGATGCGGACCTGGTGGCTGTGCTTATGTCCCCCTCATCAGACGACGACGGGGA
Regarding B29, in [1], binding was characterised by a dissociation constant (Kd) of 1.8 nM.

B30: 2'-NH2 58A (ssRNA)
RNA: GGGAGACAAGAAUAACGCUCAAUUAACGGCGUGGUCCGAGGGUGGCGAGUACUUCGACAGGAGGCUCACAACAGGC
modifications: 2'-NH2 pyrimidines
On to B30, for which, in data set [3], the Kd was found to be 1.4 nM.

B31: M225 (ssDNA)
DNA: GGGAGGACGATGCGGGGCTACGTACCGGGGCTTTGTAAAACCCCGCAGACGACGACGGGGA
In turn, B31 gave a Kd in [1] of 0.1 nM.
